The RNAGym collection of RNA variant scans (doi:10.7554/elife.80360)

B1: HDV Ribozyme (parent)
chain: GGCCGGCAUGGUCCCAGCCUCCUCGCUGGCGCCGGCUGGGCAACAUUCCGAGGGGACCGUCCCCUCGGUAAUGGCGAAUGGGACCCA

Variants of: B1
Assay: self-cleavage, relative activity (ratio to wild type); higher = more cleavage; co-transcriptional
Variant U37G A77U has a self-cleavage of 0.138.
With G38C U79C the self-cleavage was 0.0264.
C36G G74U gave a self-cleavage of 0.111.
Work on C36G G74C yielded a self-cleavage of 0.0723.
Work on C36G G52A yielded a self-cleavage of 0.271.
G35U C48U showed a self-cleavage of 0.554.
Work on U37C C86U yielded a self-cleavage of 1.06.
In the case of U37C C86G, the self-cleavage is reported as 0.956.
In the case of C36A A83G, the self-cleavage is reported as 0.159.
In the case of G35C G80U, the self-cleavage is reported as 0.043.
G35C G80C gave a self-cleavage of 0.0992.
Work on G38A G67U yielded a self-cleavage of 0.135.
G38A G67A showed a self-cleavage of 0.0665.
Work on C36G C44U yielded a self-cleavage of 0.0426.
With G38A C63U the self-cleavage was 0.0923.
In the case of C36G C61U, the self-cleavage is reported as 0.121.
Work on C36G C61G yielded a self-cleavage of 0.0386.
C36G U37G gave a self-cleavage of 0.213.
G38C G55U showed a self-cleavage of 0.193.
In the case of U37G C66U, the self-cleavage is reported as 0.196.
Work on G38C U47C yielded a self-cleavage of 0.161.
C36A U60G showed a self-cleavage of 0.178.
For G38A G59A, the self-cleavage was 0.0801.
Work on U37G C63A yielded a self-cleavage of 0.123.
In the case of C36G G39A, the self-cleavage is reported as 0.0326.
Variant G38C G74C has a self-cleavage of 0.148.
With G35C U37C the self-cleavage was 0.18.
G35U C41G gave a self-cleavage of 0.188.
G35U C41A gave a self-cleavage of 0.3.
Work on G35C G82A yielded a self-cleavage of 0.147.
U37A U65A showed a self-cleavage of 0.122.
With U37G G74A the self-cleavage was 0.229.
Variant G38C C62U has a self-cleavage of 0.197.
With C36U A42G the self-cleavage was 0.122.
G38C C75U gave a self-cleavage of 0.0297.
Work on G38C A70G yielded a self-cleavage of 0.0978.
Work on G35U A42G yielded a self-cleavage of 0.17.
In the case of G35U A42U, the self-cleavage is reported as 0.246.
With U37A G59U the self-cleavage was 0.181.
G35U U65C gave a self-cleavage of 0.434.
With C36U G38A the self-cleavage was 0.191.
With G38U A45G the self-cleavage was 0.0426.
In the case of G38U A45U, the self-cleavage is reported as 0.158.
For U37C C57G, the self-cleavage was 1.1.
Work on C36U U37G yielded a self-cleavage of 0.166.
In the case of C36U U37A, the self-cleavage is reported as 0.0978.
Work on U37C U79C yielded a self-cleavage of 0.193.
Variant U37C G76U has a self-cleavage of 1.3.
Work on G38A C49U yielded a self-cleavage of 0.119.
With G38A G53A the self-cleavage was 0.113.
In the case of C36G G54A, the self-cleavage is reported as 0.0831.
With C36G G54C the self-cleavage was 0.243.
Variant C36G U60G has a self-cleavage of 0.0723.
With G38A A43U the self-cleavage was 0.111.
U37G U60C showed a self-cleavage of 0.256.
C36G U65G showed a self-cleavage of 0.244.
For G35U A78C, the self-cleavage was 0.133.
G35U A78U gave a self-cleavage of 0.0545.
Work on C36A A45U yielded a self-cleavage of 0.0475.
U37A A43C showed a self-cleavage of 0.0723.
For U37A A43U, the self-cleavage was 0.0437.
U37A A43G showed a self-cleavage of 0.0554.
Work on U37A G55A yielded a self-cleavage of 0.283.
Work on U37G G38U yielded a self-cleavage of 0.155.
Work on U37G G38A yielded a self-cleavage of 0.111.
C36A C49G showed a self-cleavage of 0.0297.
G38A C66A gave a self-cleavage of 0.0992.
With G35U G74C the self-cleavage was 0.272.
In the case of C36G G59C, the self-cleavage is reported as 0.0755.
For U37C C62G, the self-cleavage was 0.0723.
In the case of U37C C62U, the self-cleavage is reported as 1.26.
C36A G55U gave a self-cleavage of 0.124.
In the case of C36A G55C, the self-cleavage is reported as 0.196.
Work on C36G U46C yielded a self-cleavage of 0.
Work on G35C U47C yielded a self-cleavage of 0.237.
G35C U47G gave a self-cleavage of 0.0923.
With G38A U46C the self-cleavage was 0.138.
Variant C36G A77C has a self-cleavage of 0.
Variant C36A C75A has a self-cleavage of 0.175.
With C36G U47C the self-cleavage was 0.128.
Work on C36U G68U yielded a self-cleavage of 0.786.
Work on G35U C49G yielded a self-cleavage of 0.325.
Variant G38C A42G has a self-cleavage of 0.0449.
Variant U37C A70C has a self-cleavage of 1.04.
For U37A G40A, the self-cleavage was 0.305.
In the case of U37C G74A, the self-cleavage is reported as 0.196.
In the case of C36G C66A, the self-cleavage is reported as 0.162.
Work on G38C U72C yielded a self-cleavage of 0.341.
G35U A77C showed a self-cleavage of 0.0875.
Variant G38A G80C has a self-cleavage of 0.117.
In the case of U37A G81A, the self-cleavage is reported as 0.166.
For G38C A78G, the self-cleavage was 0.0639.
In the case of G38A U79C, the self-cleavage is reported as 0.161.
Variant U37C U69C has a self-cleavage of 0.89.
Variant G35U A87C has a self-cleavage of 0.432.
With G38A G39U the self-cleavage was 0.0665.
Variant C36G G76U has a self-cleavage of 0.277.
With C36G G76A the self-cleavage was 0.162.
With U37G G59U the self-cleavage was 0.256.
U37G G59A showed a self-cleavage of 0.
Work on C36U C57G yielded a self-cleavage of 0.79.
C36U U47A gave a self-cleavage of 0.481.
In the case of U37A U60G, the self-cleavage is reported as 0.192.
For U37C C49G, the self-cleavage was 1.21.
G38C G52A gave a self-cleavage of 0.322.
C36U C64G gave a self-cleavage of 0.606.
Work on C36G G38A yielded a self-cleavage of 0.143.
In the case of U37A U79A, the self-cleavage is reported as 0.246.
Variant U37G A45C has a self-cleavage of 0.
Work on G35U G38C yielded a self-cleavage of 0.0536.
G35U G38U gave a self-cleavage of 0.
Work on U37G C84U yielded a self-cleavage of 0.111.
G38C G39C showed a self-cleavage of 0.0426.
In the case of G35U G54A, the self-cleavage is reported as 0.499.
For U37C G82A, the self-cleavage was 0.173.
Work on U37C G82U yielded a self-cleavage of 0.399.
U37C G82C showed a self-cleavage of 0.268.
In the case of G38C A71G, the self-cleavage is reported as 0.166.
Variant G38C A71U has a self-cleavage of 0.0449.
In the case of U37G C64U, the self-cleavage is reported as 0.
Work on C36G A70G yielded a self-cleavage of 0.147.
For C36G G67C, the self-cleavage was 0.148.
C36G G55A showed a self-cleavage of 0.117.
C36A C66A showed a self-cleavage of 0.151.
Variant G38C G73C has a self-cleavage of 0.284.
U37A G68U showed a self-cleavage of 0.0845.
Work on U37A G74C yielded a self-cleavage of 0.212.
With U37C A87U the self-cleavage was 1.14.
For U37C G68A, the self-cleavage was 0.864.
In the case of G35U G81C, the self-cleavage is reported as 0.133.
Work on G35U G81A yielded a self-cleavage of 0.108.
G35U G81U gave a self-cleavage of 0.156.
For U37G A78G, the self-cleavage was 0.
Work on U37C U65G yielded a self-cleavage of 0.906.
With U37G C61A the self-cleavage was 0.0875.
Work on U37G C61G yielded a self-cleavage of 0.
In the case of U37C A51G, the self-cleavage is reported as 0.966.
With G38C C57A the self-cleavage was 0.102.
With C36U G55U the self-cleavage was 0.8.
Work on G35C U60A yielded a self-cleavage of 0.192.
G38C C84U showed a self-cleavage of 0.158.
G38A U47G gave a self-cleavage of 0.116.
For G38A U47A, the self-cleavage was 0.0594.
In the case of C36A G80C, the self-cleavage is reported as 0.178.
For U37C G55A, the self-cleavage was 1.
For C36A U46C, the self-cleavage was 0.166.
Work on C36A A70G yielded a self-cleavage of 0.119.
Variant C36A A70U has a self-cleavage of 0.163.
Variant U37A U47C has a self-cleavage of 0.289.
Work on G38C C85U yielded a self-cleavage of 0.185.
With G35U A51G the self-cleavage was 0.356.
U37A U72G gave a self-cleavage of 0.302.
Work on G38C C44U yielded a self-cleavage of 0.104.
G35U G68U gave a self-cleavage of 0.309.
In the case of C36U A70U, the self-cleavage is reported as 0.702.
With C36G C85A the self-cleavage was 0.251.
C36G C85G gave a self-cleavage of 0.161.
U37A C86G showed a self-cleavage of 0.0875.
Variant G35U G80U has a self-cleavage of 0.223.
With C36G A45U the self-cleavage was 0.0791.
Work on C36U C44G yielded a self-cleavage of 0.231.
In the case of C36U C41G, the self-cleavage is reported as 0.45.
With C36U C41A the self-cleavage was 0.683.
U37C A83G showed a self-cleavage of 0.76.
With U37G C85G the self-cleavage was 0.201.
Variant C36U C75A has a self-cleavage of 0.203.
Variant G35U C36G has a self-cleavage of 0.104.
